This is an account of results in FireProtDB (doi:10.1021/bi048926x).

The conditions of this series: Pseudomonas aeruginosa (strain ATCC 15692 / DSM 22644 / CIP 104116 / JCM 14847 / LMG 12228 / 1C / PRS 101 / PAO1), pH 7, Thermal, reversible: No, whole UniProt chain shown.

Several values for one entry are separate records, joined by “and”; a condition that tells them apart may be missing. Equal entries are not always repeated.

B1: Azurin wild type, P00282 (protein)
chain: MLRKLAAVSLLSLLSAPLLAAECSVDIQGNDQMQFNTNAITVDKSCKQFTVNLSHPGNLPKNVMGHNWVLSTAADMQGVVTDGMASGLDKDYLKPDDSRVIAHTKLIGSGEKDSVTFDVSKLKEGEQYMFFCTFPGHSALMKGTLTLK
Regarding B1, the Tm (Absorbance, Phosphate 10 mM) is 78 °C. The “unfolding enthalpy (calorimetric)” value (DSC, Potassium phosphate 100 mM) was 141 kcal/mol and 130 kcal/mol and 136 kcal/mol.
